The results in this text go back to US20220372155A1 (LYVGEN BIOPHARMA, published 2022).

The assay has as its target T1, human CD40 expressed on CHO cells (human, UniProt P25942 21-277).
T1 construct: whole, on cells; also used for the reporter cells over-expressing human CD40; also called cellular CD40; CHO-CD40 cells
The experiment in a line: FACS, CHO cells.

T1 sequence (P25942 21-277): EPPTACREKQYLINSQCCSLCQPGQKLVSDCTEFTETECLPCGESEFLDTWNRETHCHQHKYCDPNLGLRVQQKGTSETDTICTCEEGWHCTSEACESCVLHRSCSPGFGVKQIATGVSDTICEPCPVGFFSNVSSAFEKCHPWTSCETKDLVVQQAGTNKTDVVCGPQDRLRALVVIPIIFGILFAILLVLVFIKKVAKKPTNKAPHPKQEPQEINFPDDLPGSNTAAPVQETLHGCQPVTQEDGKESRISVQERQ

B1: Ly417 (bispecific antibody, human IgG1, kappa)
heavy: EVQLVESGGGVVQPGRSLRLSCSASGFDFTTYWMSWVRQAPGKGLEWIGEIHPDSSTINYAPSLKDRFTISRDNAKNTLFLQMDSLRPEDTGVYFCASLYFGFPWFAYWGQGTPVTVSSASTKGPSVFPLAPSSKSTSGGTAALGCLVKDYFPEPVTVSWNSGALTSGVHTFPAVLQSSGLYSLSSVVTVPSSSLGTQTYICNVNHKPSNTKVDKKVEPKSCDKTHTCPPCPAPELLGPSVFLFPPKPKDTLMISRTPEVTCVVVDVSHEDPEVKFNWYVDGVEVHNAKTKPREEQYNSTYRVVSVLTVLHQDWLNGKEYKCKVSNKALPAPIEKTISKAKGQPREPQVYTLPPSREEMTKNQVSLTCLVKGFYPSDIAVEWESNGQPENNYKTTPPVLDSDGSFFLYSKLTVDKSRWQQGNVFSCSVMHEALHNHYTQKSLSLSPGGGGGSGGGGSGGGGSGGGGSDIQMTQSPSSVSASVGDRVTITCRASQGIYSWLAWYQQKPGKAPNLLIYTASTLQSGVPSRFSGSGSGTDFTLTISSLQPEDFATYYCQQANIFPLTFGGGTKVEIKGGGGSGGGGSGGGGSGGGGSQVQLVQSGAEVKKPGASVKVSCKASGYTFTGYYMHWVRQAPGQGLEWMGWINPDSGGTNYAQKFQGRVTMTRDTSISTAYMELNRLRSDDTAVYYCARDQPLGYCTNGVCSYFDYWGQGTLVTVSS
light: DIQLTQSPSSLSASVGDRVTITCKASQDVGTSVAWYQQKPGKAPKLLIYWTSTRHTGVPSRFSGSGSGTDFTFTISSLQPEDIATYYCQQYSLYRSFGQGTKVEIKRTVAAPSVFIFPPSDEQLKSGTASVVCLLNNFYPREAKVQWKVDNALQSGNSQESVTEQDSKDSTYSLSSTLTLSKADYEKHKVYACEVTHQGLSSPVTKSFNRGEC
notes: Ly311 HC (IgG1 mutated Fc)-Ly253 scFv VL-VH + Ly311 LC
Turning to B1, the binding result was “binds”.

B2: Ly418 (bispecific antibody, human IgG1, kappa)
heavy: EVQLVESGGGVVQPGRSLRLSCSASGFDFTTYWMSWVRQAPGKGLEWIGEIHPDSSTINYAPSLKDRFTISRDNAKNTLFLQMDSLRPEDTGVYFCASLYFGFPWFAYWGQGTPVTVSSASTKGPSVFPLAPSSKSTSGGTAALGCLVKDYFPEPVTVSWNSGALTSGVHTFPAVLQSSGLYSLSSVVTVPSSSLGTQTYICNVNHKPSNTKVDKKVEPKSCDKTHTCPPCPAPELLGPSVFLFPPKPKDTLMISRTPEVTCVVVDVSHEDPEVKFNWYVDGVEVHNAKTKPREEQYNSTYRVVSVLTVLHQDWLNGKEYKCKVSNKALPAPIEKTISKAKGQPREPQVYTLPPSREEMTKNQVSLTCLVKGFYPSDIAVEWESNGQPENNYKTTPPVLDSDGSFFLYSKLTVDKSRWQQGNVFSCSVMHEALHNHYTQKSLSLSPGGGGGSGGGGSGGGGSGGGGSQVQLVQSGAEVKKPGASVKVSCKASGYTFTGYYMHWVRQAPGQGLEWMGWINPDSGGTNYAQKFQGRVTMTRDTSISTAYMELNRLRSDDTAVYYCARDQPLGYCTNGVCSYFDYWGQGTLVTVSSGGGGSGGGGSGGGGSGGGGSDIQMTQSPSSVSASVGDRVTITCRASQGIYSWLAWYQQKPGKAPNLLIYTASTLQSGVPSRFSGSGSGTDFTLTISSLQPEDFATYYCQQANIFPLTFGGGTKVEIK
light: DIQLTQSPSSLSASVGDRVTITCKASQDVGTSVAWYQQKPGKAPKLLIYWTSTRHTGVPSRFSGSGSGTDFTFTISSLQPEDIATYYCQQYSLYRSFGQGTKVEIKRTVAAPSVFIFPPSDEQLKSGTASVVCLLNNFYPREAKVQWKVDNALQSGNSQESVTEQDSKDSTYSLSSTLTLSKADYEKHKVYACEVTHQGLSSPVTKSFNRGEC
notes: Ly311 HC (IgG1 mutated Fc)-Ly253 scFv VH-VL + Ly311 LC
Take B2: the binding result was “binds”.

B3: Ly415 (bispecific antibody, human IgG1, kappa)
heavy: EVQLVESGGGLVQPGGSLRLSCAASGFNIKDTYMHWVRQAPGKGLEWVARIDPANGNSKYADSVKGRFTISADTSKNTAYLQMNSLRAEDTAVYYCAPFGYYVSDYAMAYWGQGTLVTVSSASTKGPSVFPLAPSSKSTSGGTAALGCLVKDYFPEPVTVSWNSGALTSGVHTFPAVLQSSGLYSLSSVVTVPSSSLGTQTYICNVNHKPSNTKVDKKVEPKSCDKTHTCPPCPAPELLGPSVFLFPPKPKDTLMISRTPEVTCVVVDVSHEDPEVKFNWYVDGVEVHNAKTKPREEQYNSTYRVVSVLTVLHQDWLNGKEYKCKVSNKALPAPIEKTISKAKGQPREPQVYTLPPSREEMTKNQVSLTCLVKGFYPSDIAVEWESNGQPENNYKTTPPVLDSDGSFFLYSKLTVDKSRWQQGNVFSCSVMHEALHNHYTQKSLSLSPGK
light: DIQLTQSPSSLSASVGDRVTITCRAGESVDIFGVGFLHWYQQKPGKAPKLLIYRASNLESGVPSRFSGSGSRTDFTLTISSLQPEDFATYYCQQTNEDPYTFGQGTKVEIKRTVAAPSVFIFPPSDEQLKSGTASVVCLLNNFYPREAKVQWKVDNALQSGNSQESVTEQDSKDSTYSLSSTLTLSKADYEKHKVYACEVTHQGLSSPVTKSFNRGECGGGGSGGGGSGGGGSGGGGSDIQMTQSPSSLSASVGDRVTITCLASEDISNDLAWYQQKPGKAPKLLIYFVDRLLDGVPSRFSGSGSGTDFTLTISSLQPEDFATYYCQQSYKYPPTFGQGTKLEIKGGGGSGGGGSGGGGSGGGGSEVQLVESGGGLVQPGGSLRLSCAASGFTFTNYGLHWVRQAPGKGLEWVSSISPSGGVTYYRDSVKGRFTISRDNSKNTLYLQMNSLRAEDTAVYYCAKPFLGWGGANWIAHWGQGTLVTVSS
notes: Ly312 HC (IgG1 mutated Fc) + Ly312 LC-TM559 scFv VL-VH
B3: the binding result is “binds”.

B4: Ly416 (bispecific antibody, human IgG1, kappa)
heavy: EVQLVESGGGLVQPGGSLRLSCAASGFNIKDTYMHWVRQAPGKGLEWVARIDPANGNSKYADSVKGRFTISADTSKNTAYLQMNSLRAEDTAVYYCAPFGYYVSDYAMAYWGQGTLVTVSSASTKGPSVFPLAPSSKSTSGGTAALGCLVKDYFPEPVTVSWNSGALTSGVHTFPAVLQSSGLYSLSSVVTVPSSSLGTQTYICNVNHKPSNTKVDKKVEPKSCDKTHTCPPCPAPELLGPSVFLFPPKPKDTLMISRTPEVTCVVVDVSHEDPEVKFNWYVDGVEVHNAKTKPREEQYNSTYRVVSVLTVLHQDWLNGKEYKCKVSNKALPAPIEKTISKAKGQPREPQVYTLPPSREEMTKNQVSLTCLVKGFYPSDIAVEWESNGQPENNYKTTPPVLDSDGSFFLYSKLTVDKSRWQQGNVFSCSVMHEALHNHYTQKSLSLSPGK
light: DIQLTQSPSSLSASVGDRVTITCRAGESVDIFGVGFLHWYQQKPGKAPKLLIYRASNLESGVPSRFSGSGSRTDFTLTISSLQPEDFATYYCQQTNEDPYTFGQGTKVEIKRTVAAPSVFIFPPSDEQLKSGTASVVCLLNNFYPREAKVQWKVDNALQSGNSQESVTEQDSKDSTYSLSSTLTLSKADYEKHKVYACEVTHQGLSSPVTKSFNRGECGGGGSGGGGSGGGGSGGGGSEVQLVESGGGLVQPGGSLRLSCAASGFTFTNYGLHWVRQAPGKGLEWVSSISPSGGVTYYRDSVKGRFTISRDNSKNTLYLQMNSLRAEDTAVYYCAKPFLGWGGANWIAHWGQGTLVTVSSGGGGSGGGGSGGGGSGGGGSDIQMTQSPSSLSASVGDRVTITCLASEDISNDLAWYQQKPGKAPKLLIYFVDRLLDGVPSRFSGSGSGTDFTLTISSLQPEDFATYYCQQSYKYPPTFGQGTKLEIK
notes: Ly312 HC (IgG1 mutated Fc) + Ly312 LC-TM559 scFv VH-VL
Take B4: the binding result was “binds”.

B5: Ly412 (bispecific antibody, human IgG1, kappa)
heavy: EVQLVESGGGVVQPGRSLRLSCSASGFDFTTYWMSWVRQAPGKGLEWIGEIHPDSSTINYAPSLKDRFTISRDNAKNTLFLQMDSLRPEDTGVYFCASLYFGFPWFAYWGQGTPVTVSSASTKGPSVFPLAPSSKSTSGGTAALGCLVKDYFPEPVTVSWNSGALTSGVHTFPAVLQSSGLYSLSSVVTVPSSSLGTQTYICNVNHKPSNTKVDKKVEPKSCDKTHTCPPCPAPELLGPSVFLFPPKPKDTLMISRTPEVTCVVVDVSHEDPEVKFNWYVDGVEVHNAKTKPREEQYNSTYRVVSVLTVLHQDWLNGKEYKCKVSNKALPAPIEKTISKAKGQPREPQVYTLPPSREEMTKNQVSLTCLVKGFYPSDIAVEWESNGQPENNYKTTPPVLDSDGSFFLYSKLTVDKSRWQQGNVFSCSVMHEALHNHYTQKSLSLSPGK
light: DIQLTQSPSSLSASVGDRVTITCKASQDVGTSVAWYQQKPGKAPKLLIYWTSTRHTGVPSRFSGSGSGTDFTFTISSLQPEDIATYYCQQYSLYRSFGQGTKVEIKRTVAAPSVFIFPPSDEQLKSGTASVVCLLNNFYPREAKVQWKVDNALQSGNSQESVTEQDSKDSTYSLSSTLTLSKADYEKHKVYACEVTHQGLSSPVTKSFNRGECGGGGSGGGGSGGGGSGGGGSEVQLVESGGGLVQPGGSLRLSCAASGFTFTNYGLHWVRQAPGKGLEWVSSISPSGGVTYYRDSVKGRFTISRDNSKNTLYLQMNSLRAEDTAVYYCAKPFLGWGGANWIAHWGQGTLVTVSSGGGGSGGGGSGGGGSGGGGSDIQMTQSPSSLSASVGDRVTITCLASEDISNDLAWYQQKPGKAPKLLIYFVDRLLDGVPSRFSGSGSGTDFTLTISSLQPEDFATYYCQQSYKYPPTFGQGTKLEIK
notes: Ly311 HC (IgG1 mutated Fc) + Ly311 LC-TM559 scFv VH-VL
Turning to B5, the binding result is “binds”.

B6: Ly419 (bispecific antibody, human IgG1, kappa)
heavy: EVQLVESGGGVVQPGRSLRLSCSASGFDFTTYWMSWVRQAPGKGLEWIGEIHPDSSTINYAPSLKDRFTISRDNAKNTLFLQMDSLRPEDTGVYFCASLYFGFPWFAYWGQGTPVTVSSASTKGPSVFPLAPSSKSTSGGTAALGCLVKDYFPEPVTVSWNSGALTSGVHTFPAVLQSSGLYSLSSVVTVPSSSLGTQTYICNVNHKPSNTKVDKKVEPKSCDKTHTCPPCPAPELLGPSVFLFPPKPKDTLMISRTPEVTCVVVDVSHEDPEVKFNWYVDGVEVHNAKTKPREEQYNSTYRVVSVLTVLHQDWLNGKEYKCKVSNKALPAPIEKTISKAKGQPREPQVYTLPPSREEMTKNQVSLTCLVKGFYPSDIAVEWESNGQPENNYKTTPPVLDSDGSFFLYSKLTVDKSRWQQGNVFSCSVMHEALHNHYTQKSLSLSPGK
light: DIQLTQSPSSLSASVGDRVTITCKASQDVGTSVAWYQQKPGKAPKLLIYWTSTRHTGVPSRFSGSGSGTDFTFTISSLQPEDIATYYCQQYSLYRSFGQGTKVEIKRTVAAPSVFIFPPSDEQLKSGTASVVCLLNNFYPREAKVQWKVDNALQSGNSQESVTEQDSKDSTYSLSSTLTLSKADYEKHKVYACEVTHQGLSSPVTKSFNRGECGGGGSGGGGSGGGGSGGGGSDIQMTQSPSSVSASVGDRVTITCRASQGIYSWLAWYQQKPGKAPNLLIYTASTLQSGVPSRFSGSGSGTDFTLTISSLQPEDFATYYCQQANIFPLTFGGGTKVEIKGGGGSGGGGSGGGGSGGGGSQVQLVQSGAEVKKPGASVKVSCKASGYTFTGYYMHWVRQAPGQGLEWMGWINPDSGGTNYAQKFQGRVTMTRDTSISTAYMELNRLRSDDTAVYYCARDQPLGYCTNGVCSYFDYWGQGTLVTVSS
notes: Ly311 HC (IgG1 mutated Fc) + Ly311 LC-Ly253 scFv VL-VH
For B6, the binding result is “binds”.

B7: Ly413 (bispecific antibody, human IgG1, kappa)
heavy: EVQLVESGGGLVQPGGSLRLSCAASGFNIKDTYMHWVRQAPGKGLEWVARIDPANGNSKYADSVKGRFTISADTSKNTAYLQMNSLRAEDTAVYYCAPFGYYVSDYAMAYWGQGTLVTVSSASTKGPSVFPLAPSSKSTSGGTAALGCLVKDYFPEPVTVSWNSGALTSGVHTFPAVLQSSGLYSLSSVVTVPSSSLGTQTYICNVNHKPSNTKVDKKVEPKSCDKTHTCPPCPAPELLGPSVFLFPPKPKDTLMISRTPEVTCVVVDVSHEDPEVKFNWYVDGVEVHNAKTKPREEQYNSTYRVVSVLTVLHQDWLNGKEYKCKVSNKALPAPIEKTISKAKGQPREPQVYTLPPSREEMTKNQVSLTCLVKGFYPSDIAVEWESNGQPENNYKTTPPVLDSDGSFFLYSKLTVDKSRWQQGNVFSCSVMHEALHNHYTQKSLSLSPGGGGGSGGGGSGGGGSGGGGSDIQMTQSPSSLSASVGDRVTITCLASEDISNDLAWYQQKPGKAPKLLIYFVDRLLDGVPSRFSGSGSGTDFTLTISSLQPEDFATYYCQQSYKYPPTFGQGTKLEIKGGGGSGGGGSGGGGSGGGGSEVQLVESGGGLVQPGGSLRLSCAASGFTFTNYGLHWVRQAPGKGLEWVSSISPSGGVTYYRDSVKGRFTISRDNSKNTLYLQMNSLRAEDTAVYYCAKPFLGWGGANWIAHWGQGTLVTVSS
light: DIQLTQSPSSLSASVGDRVTITCRAGESVDIFGVGFLHWYQQKPGKAPKLLIYRASNLESGVPSRFSGSGSRTDFTLTISSLQPEDFATYYCQQTNEDPYTFGQGTKVEIKRTVAAPSVFIFPPSDEQLKSGTASVVCLLNNFYPREAKVQWKVDNALQSGNSQESVTEQDSKDSTYSLSSTLTLSKADYEKHKVYACEVTHQGLSSPVTKSFNRGEC
notes: Ly312 HC (IgG1 mutated Fc)-TM559 scFv VL-VH + Ly312 LC
In the case of B7, the binding result is on record as “binds”.

B8: Ly414 (bispecific antibody, human IgG1, kappa)
heavy: EVQLVESGGGLVQPGGSLRLSCAASGFNIKDTYMHWVRQAPGKGLEWVARIDPANGNSKYADSVKGRFTISADTSKNTAYLQMNSLRAEDTAVYYCAPFGYYVSDYAMAYWGQGTLVTVSSASTKGPSVFPLAPSSKSTSGGTAALGCLVKDYFPEPVTVSWNSGALTSGVHTFPAVLQSSGLYSLSSVVTVPSSSLGTQTYICNVNHKPSNTKVDKKVEPKSCDKTHTCPPCPAPELLGPSVFLFPPKPKDTLMISRTPEVTCVVVDVSHEDPEVKFNWYVDGVEVHNAKTKPREEQYNSTYRVVSVLTVLHQDWLNGKEYKCKVSNKALPAPIEKTISKAKGQPREPQVYTLPPSREEMTKNQVSLTCLVKGFYPSDIAVEWESNGQPENNYKTTPPVLDSDGSFFLYSKLTVDKSRWQQGNVFSCSVMHEALHNHYTQKSLSLSPGGGGGSGGGGSGGGGSGGGGSEVQLVESGGGLVQPGGSLRLSCAASGFTFTNYGLHWVRQAPGKGLEWVSSISPSGGVTYYRDSVKGRFTISRDNSKNTLYLQMNSLRAEDTAVYYCAKPFLGWGGANWIAHWGQGTLVTVSSGGGGSGGGGSGGGGSGGGGSDIQMTQSPSSLSASVGDRVTITCLASEDISNDLAWYQQKPGKAPKLLIYFVDRLLDGVPSRFSGSGSGTDFTLTISSLQPEDFATYYCQQSYKYPPTFGQGTKLEIK
light: DIQLTQSPSSLSASVGDRVTITCRAGESVDIFGVGFLHWYQQKPGKAPKLLIYRASNLESGVPSRFSGSGSRTDFTLTISSLQPEDFATYYCQQTNEDPYTFGQGTKVEIKRTVAAPSVFIFPPSDEQLKSGTASVVCLLNNFYPREAKVQWKVDNALQSGNSQESVTEQDSKDSTYSLSSTLTLSKADYEKHKVYACEVTHQGLSSPVTKSFNRGEC
notes: Ly312 HC (IgG1 mutated Fc)-TM559 scFv VH-VL + Ly312 LC
Turning to B8, the binding result is “binds”.
